Where “and” joins values, the source holds several entries; their conditions need not be identical. Equal values may be shown once.
Tests used:
[1] = biological target: the molecule itself; test: electron microscopy on grids; purified EcLon on EM grids
[2] = biological target: the molecule itself; test: SEC + other: negative staining electron microscopy; Superose 6 Increase 10/300 GL in buffer A (50 mM Tris/HCl, 200 mM NaCl, pH 8.0); oligomer size by column calibration, verified by negative staining EM

| Protein | stoichiometry N [1] | stoichiometry N [2] |
| --- | --- | --- |
| Lon protease from Escherichia coli, full length (enzyme, UniProt P0A9M0 1-784, looked up, Lon protease, Escherichia coli, UniProt P0A9M0, full length, untagged after SUMO cleavage; Seen as a mixture of hexamers and dodecamers on EM grids; also called EcLon; EcLon^FL; source: E. coli C41(DE3), purified (Ni-NTA, SUMO tag cleaved with SENP protease, Superose 6 Increase SEC); not shown: His6, N-terminal, cleaved; SUMO, N-terminal, cleaved) MNPERSERIEIPVLPLRDVVVYPHMVIPLFVGREKSIRCLEAAMDHDKKIMLVAQKEASTDEPGVNDLFTVGTVASILQMLKLPDGTVKVLVEGLQRARISALSDNGEHFSAKAEYLESPTIDEREQEVLVRTAISQFEGYIKLNKKIPPEVLTSLNSIDDPARLADTIAAHMPLKLADKQSVLEMSDVNERLEYLMAMMESEIDLLQVEKRIRNRVKKQMEKSQREYYLNEQMKAIQKELGEMDDAPDENEALKRKIDAAKMPKEAKEKAEAELQKLKMMSPMSAEATVVRGYIDWMVQVPWNARSKVKKDLRQAQEILDTDHYGLERVKDRILEYLAVQSRVNKIKGPILCLVGPPGVGKTSLGQSIAKATGRKYVRMALGGVRDEAEIRGHRRTYIGSMPGKLIQKMAKVGVKNPLFLLDEIDKMSSDMRGDPASALLEVLDPEQNVAFSDHYLEVDYDLSDVMFVATSNSMNIPAPLLDRMEVIRLSGYTEDEKLNIAKRHLLPKQIERNALKKGELTVDDSAIIGIIRYYTREAGVRGLEREISKLCRKAVKQLLLDKSLKHIEINGDNLHDYLGVQRFDYGRADNENRVGQVTGLAWTEVGGDLLTIETACVPGKGKLTYTGSLGEVMQESIQAALTVVRARAEKLGINPDFYEKRDIHVHVPEGATPKDGPSAGIAMCTALVSCLTGNPVRADVAMTGEITLRGQVLPIGGLKEKLLAAHRGGIKTVLIPFENKRDLEEIPDNVIADLDIHPVKRIEEVLTLALQNEPSGMQVVTAK | 6 and 12 |  |
| Lon protease from Thermus thermophilus (enzyme, UniProt Q72KS4 1-795, looked up, Lon protease, Thermus thermophilus, UniProt Q72KS4, full length, untagged and unmodified after SUMO cleavage; Homo-hexamer; cryo-EM sample in buffer A with 1 mM AMP-PNP and 5 mM MgCl2; also called TtLon; Lon from T. thermophilus; source: E. coli C41(DE3), purified (Ni-NTA, SUMO tag cleaved with SENP protease, Superose 6 Increase SEC); not shown: His6, N-terminal, cleaved; SUMO, N-terminal, cleaved) MKDFLRLELPVLPLRNTVVLPHTTTGVDVGRLKSKRAVEEALSADRLLFLVTQKDPEVDDPAPEDLYAVGTLAVVKQAMRLPDGTLQVMVEARSRARLLSYVAAPYLRAVGEAIPEPPLKDPELARVLVNEVQEAFERYLQNHKTLRLDRYQQEAVKSTRDPAILADLVAHHATWTLEEKQTILETPEVEERLKRVLALLLRDLERFELDKKIAARVKEQMDQNQREYYLREQMKAIQKELGGGEDFLTEIEELRERIEKKGMPEPVKEKALKELKRLERMQPGSPEATVSRTYLDWLLEVPWTEADPEVLDISVTKRVLDEDHYGLKEVKERILEYLAVRQLTQGKEVKGHAPILCFVGPPGVGKTSLGKSIARSMNRRFHRISLGGVRDEAEIRGHRRTYIGALPGKIIQGMKQVGVVNPVFLLDEIDKLSSDWRGDPAAALLEVLDPEQNHTFTDHYLDVPYDLSKVFFITTANTLSTIPRPLLDRMEVIEIPGYTLHEKRAIARYFRWPFQVKEAGLEGRLEITDRAIERIVQEYTREAGVRNLDRELSKVARKAAKDYLEKPWEGVRVVDAEDLEAYLGVPKYRPDRAEKEPQVGAAQGLAWTPYGGTLLTIEAVAVPGTGKVNLTGNLGEVMKESAHAALTYLRAHREEWGLPEGFHKDYDLHIHVPEGATPKDGPSAGITIATALASALTGRPVRMDIAMTGEITLRGRVLPIGGVKEKLLAAHQAGIHRVILPKENAAELKEVPEEILKDLEIHFVEEVGEVLKLLLLPPPPPPAVQPDRPQPGVGA |  | 6 |
| N-terminally truncated mutant EcLon^253-784 (domain or fragment, Escherichia coli, UniProt P0A9M0 253-784, looked up, Lon protease, Escherichia coli, UniProt P0A9M0, residues 253-784 (lacks the NTD and the collar); Tags and their cleavage follow from 'produced as described for full-length EcLon'; also called EcLon truncation including residues 253 to 784; source: E. coli C41(DE3), purified, produced as described for full-length EcLon; not shown: His6, N-terminal, cleaved; SUMO, N-terminal, cleaved) ALKRKIDAAKMPKEAKEKAEAELQKLKMMSPMSAEATVVRGYIDWMVQVPWNARSKVKKDLRQAQEILDTDHYGLERVKDRILEYLAVQSRVNKIKGPILCLVGPPGVGKTSLGQSIAKATGRKYVRMALGGVRDEAEIRGHRRTYIGSMPGKLIQKMAKVGVKNPLFLLDEIDKMSSDMRGDPASALLEVLDPEQNVAFSDHYLEVDYDLSDVMFVATSNSMNIPAPLLDRMEVIRLSGYTEDEKLNIAKRHLLPKQIERNALKKGELTVDDSAIIGIIRYYTREAGVRGLEREISKLCRKAVKQLLLDKSLKHIEINGDNLHDYLGVQRFDYGRADNENRVGQVTGLAWTEVGGDLLTIETACVPGKGKLTYTGSLGEVMQESIQAALTVVRARAEKLGINPDFYEKRDIHVHVPEGATPKDGPSAGIAMCTALVSCLTGNPVRADVAMTGEITLRGQVLPIGGLKEKLLAAHRGGIKTVLIPFENKRDLEEIPDNVIADLDIHPVKRIEEVLTLALQNEPSGMQVVTAK |  | 6 |
